According to patent US20200247855A1, “THERAPY AND DIAGNOSTICS” (OXFORD UNIVERSITY INNOVATION LIMITED, priority 2017, published 2020):

Key:
CXCL10_HUMAN = molecular target: T1, CXCL10_HUMAN (Homo sapiens, UniProt P02778); assay: Yeast surface display (YSD) FACS binding; conditions: yeast surface display
T1 sequence (P02778 22-98): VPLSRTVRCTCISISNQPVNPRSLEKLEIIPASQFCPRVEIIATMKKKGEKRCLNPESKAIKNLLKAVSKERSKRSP
Experimental: (§1) Table 1. Tick CKBPs described in PCT/GB2017/050563 and [17]. Tick peptide sequences isolated in yeast surface display fluorescent-activated cell sorting (FACS) screens using a labelled chemokine. Identity with Evasin-1, 4 or 3 was calculated using BLAST. Abbreviations: IXORI—Ixodes ricinus, RHISA—Rhipicephalus sanguineus, AMBMA—Amblyomma maculatum, AMBPA—Amblyomma parvum, AMBTR—Amblyomma triste, AMBAM—Amblyomma americanum, AMBCA—Amblyomma cajennense, RHIPU—Rhipicephalus pulchellus. Table 2A-C. Binding characteristics of tick CKBPs previously disclosed (PCT/GB2017/050563 and [17]). All members of the human chemokine family[164] are listed in column 1. Binding to human chemokines was determined for 14 tick CKBPs using biolayer interferometry (BLI) with calculated Kd shown as Molar (Moles/Litre). Binding data for 17 other novel tick CKBPs was assayed using yeast surface display[17,166],with positive binding results shown as “YES”. For biolayer interferometry, His-tagged purified tick CKBP was bound to a Ni-NINTA sensor on an OctetRed® 384 system, and then binding to each chemokine listed (with the exception of CCL25, CCL26, CXCL16, CXCL17, CXCL4L1, XCL2) was assayed in a cross-binding screen at a chemokine concentration of 300 nM as described. For those chemokines showing binding to a tick CKBP in the cross-binding screen, binding assays were repeated using different doses of chemokine. Association, equilibrium and dissociation data were analysed using Octet software to create corresponding fitted curves, and used to calculate Kd. For yeast surface display, (YSD) background fluorescence was controlled for by using either an empty vector or by omitting the chemokine (i.e. using streptavidin-Alexa647 alone). An arbitrary threshold of >3 fold over background mean fluorescence intensity was chosen to describe confirmed re-tests. Where binding was detected data are indicated as “YES”. […] For yeast surface display data, empty cells represent chemokines that were not tested. Binding data published in relation to previously described tick CKBPs (Evasins-1, 4 and 3) is also shown for comparison in each of FIGS. 2A-C, with the relevant data obtained from publications: [20-22,32]. Table 3: Neutralisation of human chemokines by tick CKBPs previously disclosed (PCT/GB2017/050563 and [17]). Neutralising activity was determined using a quantitative THP1 cell migration assay in a 96-well Boyden chamber with chemokine in the bottom chamber as described. Cells migrating through to the bottom chamber at 4 hours were counted using flow cytometry in a 96 well plate format. IC50 for neutralisation was determined at the chemokine EC80 dose as determined using a range of tick CKBP concentrations. Data was analysed using GraphPad Prism to determine IC50, which is shown as Molar (Moles/Litre). Empty cells represent experiments not done. Table 4—Other previously described tick CKBPs. Tick CKBPs that were also described in PCT/GB2017/050563 and Singh et al. are indicated in “Notes”. Table 5.—Novel tick CKBPs of the invention. Table 6. […] The peptide sequence prefix indicates the identity, and suffix indicate the tick species as follows: AMBCA, Amblyomma cajennense and IXORI, Ixodes ricinus. […] Certain tick peptides e.g. P1074_IXORI were recovered from screens performed with more than one chemokine. Individual yeast clones recovered from the library were re-tested using a FACS (fluorescence activated cell sorting), experiment. The binding of the peptide to the chemokine was assayed by measuring the percent (%), of yeast cells expressing the given peptide that exceeded a background threshold set by measuring the fluorescence of the yeast library pool treated with streptavidin-[…] alone. When more than one independent yeast clone was isolated for a given peptide-chemokine combination, the mean percent shift was calculated and reported in column 3. […]

CCL5_HUMAN = molecular target: T2, CCL5_HUMAN (Homo sapiens, UniProt P13501); assay: Yeast surface display (YSD) FACS binding
T2 sequence (P13501 24-91): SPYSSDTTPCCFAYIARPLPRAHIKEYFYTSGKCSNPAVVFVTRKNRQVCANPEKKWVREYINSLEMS
Experimental: as §1

CXCL8_HUMAN = molecular target: T3, CXCL8_HUMAN (Homo sapiens, UniProt P10145); assay: Yeast surface display (YSD) FACS binding; design: label (chemical); conditions: FACS re-test; mean percent shift where several clones
T3 sequence (P10145 21-99): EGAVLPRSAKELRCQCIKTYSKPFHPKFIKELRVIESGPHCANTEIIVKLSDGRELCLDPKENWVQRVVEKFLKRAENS
Experimental: as §1

CCL18_HUMAN = molecular target: T4, CCL18_HUMAN (Homo sapiens, UniProt P55774); assay: Biolayer interferometry (BLI) binding
T4 sequence (P55774 21-89): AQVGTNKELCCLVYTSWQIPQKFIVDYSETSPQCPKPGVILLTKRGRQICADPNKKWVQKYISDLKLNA
Experimental: as §1

CCL3L1_HUMAN = CCL3L1_HUMAN (Homo sapiens, UniProt P16619); assay: Biolayer interferometry (BLI) binding
Experimental: as §1

CCL7_HUMAN = CCL7_HUMAN (Homo sapiens, UniProt P80098); assay: Biolayer interferometry (BLI) binding
Experimental: as §1

CCL3_HUMAN = molecular target: T5, CCL3_HUMAN (Homo sapiens, UniProt P10147); assay: Biolayer interferometry (BLI) binding
T5 sequence (P10147 24-92): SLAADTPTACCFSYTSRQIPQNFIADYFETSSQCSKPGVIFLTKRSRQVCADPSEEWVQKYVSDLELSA
Experimental: as §1

CCL8_HUMAN = molecular target: T6, CCL8_HUMAN (Homo sapiens, UniProt P80075); assay: Biolayer interferometry (BLI) binding; conditions: read-out: Kd, CCL8_HUMAN
T6 sequence (P80075 24-99): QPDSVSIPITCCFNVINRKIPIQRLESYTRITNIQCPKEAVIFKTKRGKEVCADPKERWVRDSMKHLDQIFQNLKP
Experimental: as §1

CCL4L1_HUMAN = molecular target: T7, CCL4L1_HUMAN (Homo sapiens, UniProt Q8NHW4); assay: Biolayer interferometry (BLI) binding
T7 sequence (Q8NHW4 24-92): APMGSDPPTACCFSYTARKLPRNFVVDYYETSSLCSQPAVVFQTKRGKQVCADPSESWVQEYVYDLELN
Experimental: as §1

CCL14_HUMAN = molecular target: T8, CCL14_HUMAN (Homo sapiens, UniProt Q16627); assay: Biolayer interferometry (BLI) binding
T8 sequence (Q16627 20-93): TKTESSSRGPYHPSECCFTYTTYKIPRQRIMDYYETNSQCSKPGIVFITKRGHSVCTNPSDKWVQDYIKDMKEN
Experimental: as §1

CCL4_HUMAN = molecular target: T9, CCL4_HUMAN (Homo sapiens, UniProt P13236); assay: Biolayer interferometry (BLI) binding
T9 sequence (P13236 24-92): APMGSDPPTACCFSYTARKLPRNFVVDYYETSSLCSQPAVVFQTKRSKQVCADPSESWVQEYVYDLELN
Experimental: as §1

CCL11_HUMAN = CCL11_HUMAN (Homo sapiens, UniProt P51671); assay: Biolayer interferometry (BLI) binding
Experimental: as §1

CCL2_HUMAN = CCL2_HUMAN (Homo sapiens, UniProt P13500); assay: Biolayer interferometry (BLI) binding
Experimental: as §1

CCL13_HUMAN = CCL13_HUMAN (Homo sapiens, UniProt Q99616); assay: Biolayer interferometry (BLI) binding
Experimental: as §1

CCL11_HUMAN, sequence (P51671 24-97): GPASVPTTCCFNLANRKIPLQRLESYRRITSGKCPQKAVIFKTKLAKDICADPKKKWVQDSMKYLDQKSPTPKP
CCL13_HUMAN, sequence (Q99616 17-98): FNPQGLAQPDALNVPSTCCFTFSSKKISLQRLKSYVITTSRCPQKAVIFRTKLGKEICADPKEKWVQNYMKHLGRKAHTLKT
CCL3L1_HUMAN, sequence (P16619 24-93): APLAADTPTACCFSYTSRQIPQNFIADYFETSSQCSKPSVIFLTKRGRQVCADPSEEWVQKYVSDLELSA
CCL2_HUMAN, sequence (P13500 24-99): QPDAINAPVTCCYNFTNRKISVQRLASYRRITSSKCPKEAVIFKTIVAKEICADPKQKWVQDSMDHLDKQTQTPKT
CCL7_HUMAN, sequence (P80098 24-99): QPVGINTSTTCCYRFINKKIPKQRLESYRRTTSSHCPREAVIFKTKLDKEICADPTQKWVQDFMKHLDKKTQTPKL

B1: P1224_IXORI: tick CKBP, Ixodes ricinus (protein, listed as Ixodes ricinus)
chain: SDLCKMEAESSPFKLPQSSLLDAPDEEGCKYQLLFVEAEGPLVVNCTKDCPNGKIRTVVEGELCIAMVKTSSSGEATGLVGSCKRGSCVKKDDPCRTFTLSEEGDDDEEDEEEEEDEEEDEEEDEEEEEEDEEEED
CXCL10_HUMAN
  Binding to CXCL10_HUMAN, YSD: YES (An arbitrary threshold of >3 fold over background mean fluorescence intensity was chosen to describe confirmed re-tests. Where binding was detected data are indicated as “YES”)

B2: P1283_IXORI: tick CKBP, Ixodes ricinus (protein, listed as Ixodes ricinus)
chain: KEPEDTTLPPGALVDSPDSDNCSSPHLPYFDETTNMWMGFLAVNCTKKCPVGKHVTVVDGNKCIGTWSFLDELTITVLVGSCKDGFCETDGSSECRNITLAEEDSQEEEGAAAEEEDEEDEEDEEEEEAEEEREDDHDDA
CXCL10_HUMAN
  Binding to CXCL10_HUMAN, YSD: YES (An arbitrary threshold of >3 fold over background mean fluorescence intensity was chosen to describe confirmed re-tests. Where binding was detected data are indicated as “YES”)

B3: P1063_AMBTR: tick CKBP, Amblyomma triste (protein)
chain: QSEVGKNVPGCGDTETLEAPPQEKPPYYEYKDEEGCTQKVLESWFQAGERSTGRGQKKRGHGRRPSRVLRTVDCRKNCTVGITALPDGHLCLVPRGDPFTRGGAIKYGCYLGDCASGHCQHRYETVSCRLPAPDTTAKPYYVTPEK
modifications: Amblyomma triste
CCL5_HUMAN
  Binding to CCL5_HUMAN, YSD: YES (An arbitrary threshold of >3 fold over background mean fluorescence intensity was chosen to describe confirmed re-tests. Where binding was detected data are indicated as “YES”)

B4: P1127_IXORI: novel CXC-binding tick CKBP, Ixodes ricinus (protein, listed as Ixodes ricinus)
chain: AGKDDEHFSVDYCGMNCTQQEDGSWTACSGRNGECRCYHESGKRSGLCLSTTYIDFSEYGNLSDSDIAAASPRLSMKESH
CXCL8_HUMAN
  Chemokines bound in yeast surface display and % cells over threshold fluorescence: CXCL8_HUMAN: CXCL8_HUMAN 43%

B5: P1181_AMBMA: tick CKBP, Amblyomma maculatum (protein, listed as Amblyomma maculatum)
chain: EEREDDNDYGGGCPFVVLGNGTHAKPAGCSHLCNGAPETLDNIECYNVTEEVAKRMTPDIPYTCWLGWCSKGECKRDNRTEVCYRGSERE
CCL18_HUMAN
  Kd: 10 nM
CCL3L1_HUMAN
  Kd: 3.3 nM
CCL7_HUMAN
  Kd: 120 nM
CCL3_HUMAN
  Kd: 2.2 nM
CCL8_HUMAN
  Kd: 14 nM
CCL4L1_HUMAN
  Kd: 35 nM
CCL14_HUMAN
  Kd: 47 nM
CCL4_HUMAN
  Kd: 53 nM
CCL11_HUMAN
  Kd: 20 nM
CCL2_HUMAN
  Kd: 74 nM
CCL13_HUMAN
  Kd: 19 nM

B6: P1219_IXORI: tick CKBP, Ixodes ricinus (protein, listed as Ixodes ricinus)
chain: ASLAKETEDTTLPARALVDSPDSDNCSSPQLPYFDELTYMPLGFLAVNCTKTCPVGKNGTVVNGNKCIVTWSILDVSTITVLVGSCKNGYCISDGSSECRNITLAGEDSQEEEEEAEEDEEEDDGDEEEDEEEDEEENDDD
CXCL10_HUMAN
  Binding to CXCL10_HUMAN, YSD: YES (An arbitrary threshold of >3 fold over background mean fluorescence intensity was chosen to describe confirmed re-tests. Where binding was detected data are indicated as “YES”)

B7: P1174_IXORI: novel CXC-binding tick CKBP, Ixodes ricinus (protein, listed as Ixodes ricinus)
chain: LNNENELFSVEYCGANCTQQDNGSWTKCKGNCTCYHEDGKRYGLCLSTEYTDFTQFPKPTSEEIADASPRPKETNSH
CXCL8_HUMAN
  Chemokines bound in yeast surface display and % cells over threshold fluorescence: CXCL8_HUMAN: CXCL8_HUMAN 29%

B8: P1182_AMBMA: tick CKBP, Amblyomma maculatum (protein, listed as Amblyomma maculatum)
chain: EPKDDNDYGGGCPFVVLGNGTHAKPAGCSHLCNGAPETLDNIECYNVTEEVAKRMTPGIPYACWLGWCNKGECKRGNRTEVCYRGSEEE
CCL18_HUMAN
  Kd: 33 nM
CCL3L1_HUMAN
  Kd: 9.5 nM
CCL3_HUMAN
  Kd: 5.4 nM
CCL8_HUMAN
  Kd: 29 nM
CCL4L1_HUMAN
  Kd: 92 nM
CCL14_HUMAN
  Kd: 50 nM
CCL4_HUMAN
  Kd: 63 nM
CCL11_HUMAN
  Kd: 28 nM
CCL2_HUMAN
  Kd: 74 nM
CCL13_HUMAN
  Kd: 56 nM

B9: P1128_IXORI: novel CXC-binding tick CKBP, Ixodes ricinus (protein, listed as Ixodes ricinus)
chain: KDDEHFSVDYCGMNCTQQEDGSWTACSGRNEECRCYHESGKKNGLCLSTTYIDFSQYGNPSDSDIAAASPRP
CXCL8_HUMAN
  Chemokines bound in yeast surface display and % cells over threshold fluorescence: CXCL8_HUMAN: CXCL8_HUMAN 53%

B10: P1170_IXORI: novel CXC-binding tick CKBP, Ixodes ricinus (protein, listed as Ixodes ricinus)
chain: LGDEDQLFSVEYCGTNCTQQDDGKWTPCSGKNGKCKCYHEDGKRYGLCLYTEYTDFSQYPNPEGSEIENTRPRP
CXCL8_HUMAN
  Chemokines bound in yeast surface display and % cells over threshold fluorescence: CXCL8_HUMAN: CXCL8_HUMAN 81%

B11: P1180_AMBTR: tick CKBP, Amblyomma triste (protein)
chain: EEPKDGYDYTEGCPFVVLGNGTHAKPAGCSHLCNGAPETLDDNMECYNVTEEVAKRMTPDIPYTCWLGWCSKGECKRDNRTEVCYRGSERE
modifications: Amblyomma triste
CCL18_HUMAN
  Kd: 5.8 nM
CCL3L1_HUMAN
  Kd: 2.2 nM
CCL7_HUMAN
  Kd: 98 nM
CCL3_HUMAN
  Kd: 1.1 nM
CCL8_HUMAN
  Kd: 3.6 nM
CCL4L1_HUMAN
  Kd: 20 nM
CCL14_HUMAN
  Kd: 4.4 nM
CCL4_HUMAN
  Kd: 66 nM
CCL11_HUMAN
  Kd: 33 nM
CCL2_HUMAN
  Kd: 53 nM
CCL13_HUMAN
  Kd: 9 nM
